The record followed here is the RNAGym collection of RNA variant scans (doi:10.7554/elife.80360).

B1: CPEB3 Ribozyme (parent)
chain: GGGGGCCACAGCAGAAGCGUUCACGUCGCGGCCCCUGUCAGAUUCUGGUGAAUCUGCGAAUUCUGCUGU

In this data set the parent is B1. As to the kind of experiment: self-cleavage, relative activity (ratio to wild type); higher = more cleavage; co-transcriptional.
As for U53C G56A, the self-cleavage was found to be 0.539.
Turning to U53C G56C, the self-cleavage came to 0.39.
Then A52U, with 0.99.
Then A52U A59U, with 0.803.
In the case of A52U A59C, the self-cleavage stood at 0.716.
Regarding A52U A59G, the self-cleavage amounted to 0.972.
Consider U53C C54A, for which the self-cleavage was determined as 0.506.
In the case of U53C C54G, the self-cleavage was 0.424.
The figure for U53C C57G is 0.398; for U53C C57A it is 0.346.
As for U53C C57U, the self-cleavage is 0.43.
As to U53C G65C, the self-cleavage worked out at 0.407.
The figure for U53C G65A is 0.472; for U53A G58A it is 0.919.
Take U53A G58C: the self-cleavage came to 0.917.
Then U53A G58U, with 0.944.
U53G G56U: the self-cleavage was found to be 0.401.
The figure for U53G G56C is 0.331.
As to U53G G56A, the self-cleavage amounted to 0.553.
A52U U62G: the self-cleavage turned out to be 0.82.
Regarding A52U U62A, the self-cleavage came to 0.829.
As to U53G A60U, the self-cleavage is 0.301.
Then U53G A60C, with 0.308.
Then U53G A60G, with 0.793.
Then U53G G68A, with 0.909; and A52U U53G, with 0.871; and A52U U53C, with 0.879.
A52U U53A: the self-cleavage came out at 0.981.
Then U53A U55A, with 0.354; and A52U U61A, with 0.935; and A52U U61C, with 0.68.
In the case of U53A C57U, the self-cleavage turned out to be 0.376.
Take U53A C57G: the self-cleavage is 0.345.
For U53A U67G, the self-cleavage came out at 0.938.
Then U53A U67A, with 0.834; and A52U G65A, with 0.783; and U53G U55A, with 0.417.
Then U53G U55C, with 0.468.
Turning to U53A U69G, the self-cleavage is 1.05.
Then U53A U69A, with 1.01; and U53C G68C, with 1.02; and U53C G68U, with 0.986.
Then U53C G68A, with 0.977.
For U53G A59G, the self-cleavage came out at 0.894.
Then U53G A59C, with 0.422; and A52G U62C, with 0.915; and A52G U62G, with 0.963.
Then A52G U62A, with 0.871; and A52U C66U, with 0.973.
On to A52U C66A, for which the self-cleavage amounted to 0.701.
A52U G68C: the self-cleavage is 0.98.
Regarding A52U G68U, the self-cleavage is 0.992.
Regarding C54A C63U, the self-cleavage was 0.796.
The figure for C54A C63A is 0.538; for C54A C63G it is 0.445; for U53G U69C it is 1.04.
Regarding U53G U69G, the self-cleavage amounted to 1.02.
The figure for A52G U64C is 0.912.
As for A52G U64G, the self-cleavage stood at 0.957.
On to A52G U64A, for which the self-cleavage amounted to 0.911.
As to A52G U53A, the self-cleavage turned out to be 0.917.
Take A52U G58C: the self-cleavage amounted to 0.954.
As for A52U G58U, the self-cleavage turned out to be 0.992.
Then A52U U69G, with 1.04.
With A52U U69C, the self-cleavage came out at 1.05.
Take A52G U55A: the self-cleavage stood at 0.914.
Then A52G U55G, with 0.729.
Then U53A G68U, with 0.978; and U53A G68C, with 1.03.
Then U53A G68A, with 1.03; and U53A U62G, with 0.74.
As to U53A U62C, the self-cleavage stood at 0.634.
Take U53A U62A: the self-cleavage was determined as 0.821.
In the case of U53G U62A, the self-cleavage was determined as 0.688.
As to U53G U62C, the self-cleavage stood at 0.619.
The figure for A52U C57A is 0.453; for A52U C57G it is 0.334; for A52U C57U it is 0.309.
Take A52G G56U: the self-cleavage was 0.97.
Then U53C G58A, with 0.85; and U53C G58C, with 0.94; and A52U C63G, with 0.72.
With A52U C63A, the self-cleavage is 0.789.
Then U53C U69C, with 1.05; and U53C U69G, with 0.993; and U53G U64G, with 0.6.
Then U53G U64C, with 0.764; and U53G C57U, with 0.311; and U53G C57A, with 0.327.
Then U53A C63U, with 0.909; and U53A C63G, with 0.709.
Regarding U53C A59G, the self-cleavage stood at 0.944.
The figure for U53C A59C is 0.525; for U53C A59U it is 0.618; for A52G G58A it is 0.926.
Turning to A52G G58U, the self-cleavage is 1.
With A52U C54G, the self-cleavage amounted to 0.835.
With A52U C54A, the self-cleavage amounted to 0.907.
Then U53A C66U, with 0.911; and U53A C66G, with 0.624.
The figure for U53C U61G is 0.58.
The figure for A52G G68A is 1.01; for A52G G68C it is 0.975.
Take U53C C63A: the self-cleavage stood at 0.402.
As for U53C C63G, the self-cleavage is 0.451.
The figure for C54A C57G is 0.338; for C54A C57A it is 0.378; for C54A C57U it is 0.377.
Turning to A52G U67A, the self-cleavage amounted to 1.
Take U53G C54U: the self-cleavage was 0.815.
The figure for U53G C54G is 0.673.
Then A52G G65A, with 0.945; and U53C C66G, with 0.477.
The figure for U53C A60U is 0.397; for U53C A60G it is 0.711.
For the variant U53C A60C, the self-cleavage worked out at 0.31.
The figure for U53G C66A is 0.629; for C54A A60G it is 0.584; for C54A A60U it is 0.308.
Regarding U53G G58U, the self-cleavage turned out to be 0.939.
Consider U53G G58C, for which the self-cleavage stood at 0.847.
The figure for U53C U64A is 0.525.
The figure for U53C U64C is 0.536; for U53C U64G it is 0.535; for U53A U64C it is 0.693.
In the case of U53A U64G, the self-cleavage was 0.626.
Take U53A U64A: the self-cleavage is 0.822.
The figure for C54A is 0.944; for U53A it is 0.973.
Take U53C: the self-cleavage amounted to 0.947.
Then U53G, with 0.927; and U53A A59G, with 0.98.
For U53A A59C, the self-cleavage was 0.571.
As for U53A A59U, the self-cleavage turned out to be 0.646.
Then U53A U61C, with 0.583; and U53A U61A, with 0.694; and U53A G65C, with 0.552.
The figure for U53A G65A is 0.739.
Turning to U53A G65U, the self-cleavage was found to be 0.587.
Then U53A C54G, with 0.586; and A52G U61C, with 0.879.
The figure for A52U U55C is 0.63; for U53G G65A it is 0.707; for U53G G65U it is 0.606.
Regarding U53G G65C, the self-cleavage is 0.704.
The figure for A52U A60C is 0.47; for A52U A60U it is 0.486; for A52U A60G it is 0.808.
As for A52G U69C, the self-cleavage amounted to 1.06.
As for A52G U69A, the self-cleavage was 0.985.
The figure for A52G U69G is 1.07; for U53C U62G it is 0.384; for U53C U62A it is 0.549.
Then U53A G56U, with 0.583.
Consider A52U U64G, for which the self-cleavage is 0.666.
Regarding A52U U64C, the self-cleavage was 0.741.
With A52U G56C, the self-cleavage is 0.456.
Then A52U U67C, with 0.915; and A52U U67G, with 0.987; and U53G U61A, with 0.706.
The figure for U53G U61C is 0.473; for U53G U61G it is 0.681; for U53C U55C it is 0.409.
The figure for U53C U55A is 0.364.
For U53C U55G, the self-cleavage worked out at 0.303.
The figure for C54A C66A is 0.45; for C54A C66U it is 0.911.
